Biological target: recombinant human ANGPT2 (full-length ANGPT2-His protein, R&D Systems) (human) (UniProt O15123)
Experiment: cellular FACS IGF-1R-ANGPT2 bridging assay on I24 cells with purified Bispecific VL-VH/CL-CH1 exchange mix and 2 µg/mL hANGPT2; isotype control in place of <Ang-2>mIgG1-Biotin, SA-PE (FL2-H)

Chain of UniProt O15123 (O15123 19-496 limits assumed): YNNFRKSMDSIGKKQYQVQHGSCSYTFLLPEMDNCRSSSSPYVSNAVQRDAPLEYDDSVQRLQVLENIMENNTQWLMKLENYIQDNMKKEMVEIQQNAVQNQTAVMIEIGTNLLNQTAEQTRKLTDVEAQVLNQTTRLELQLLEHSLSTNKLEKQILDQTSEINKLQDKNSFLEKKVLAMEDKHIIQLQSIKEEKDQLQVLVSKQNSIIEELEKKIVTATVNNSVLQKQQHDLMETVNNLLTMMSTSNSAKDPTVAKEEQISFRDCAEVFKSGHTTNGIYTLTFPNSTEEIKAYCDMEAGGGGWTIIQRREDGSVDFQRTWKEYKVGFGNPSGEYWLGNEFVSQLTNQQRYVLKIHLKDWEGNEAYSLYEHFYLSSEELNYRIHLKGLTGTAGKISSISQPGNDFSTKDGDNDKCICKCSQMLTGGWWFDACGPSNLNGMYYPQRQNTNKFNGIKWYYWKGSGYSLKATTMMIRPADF

Mean: 8.7
Substance: mIgG1-Biotin-Isotype control (antibody)

Source: US20090232811A1
